Laboratory results published in patent US20210369812A1, “OSTEOINDUCTIVE PEPTIDES, COMPOSITIONS, IMPLANTS, AND METHODS OF USE” (The Board of Regents of the University of Oklahoma, priority 2018, published 2021).

Columns and labels:
BMPR2 = target: T1, BMPR2 (Homo sapiens, UniProt Q13873); assay: Enzyme-linked immune sorbent assay for receptor binding (BMPR2); settings: peptide on p3 of M13 phage; absorbance 450 nm; n=4; vs wild type phage
T1 construct: purchased G&P Biosciences
T1 sequence (Q13873 27-150 limits assumed): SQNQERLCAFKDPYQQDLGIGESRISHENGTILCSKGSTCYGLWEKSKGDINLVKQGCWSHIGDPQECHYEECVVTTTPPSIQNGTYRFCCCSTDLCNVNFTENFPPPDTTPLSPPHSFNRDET
Excerpt: Groups having the same lowercase letter assigned (above the bar) were not statistically different from each other. Groups having different letters assigned (above the bar) were statistically different from each other. […] The primary antibody was mouse anti-g3p (p8) IgG. The secondary antibody was anti-mouse IgG conjugated with horseradish peroxidase. The substrate, 3,3′,5,5′-Tetramethylbenzidine was detected at 450 nm after stopping the reaction with 1 M HCl.
Blocking buffer (0.1 M NaHCO3 (pH 8.6), 5 mg/ml BSA. Filter sterilized, stored at 4° C.) was prepared. TBS (50 mM Tris-HCl (pH 7.5), 150 mM NaCl, autoclaved, stored at room temperature) was prepared. Separate solutions of the target receptors were then made. For BMPR1A, a 10 μg/ml stock solution was made. For BMPR2, a 10 μg/ml solution was also made. Separate wells with n=4 for each different peptide bearing phage group were then coated with one of the receptors. […] After a brief pilot test, it should be noted that using 10^10 phage/ml was determined to work best, but other concentrations of virus also worked consistently. […] Then, […] of freshly prepared 3,3′,5,5′-Tetramethylbenzidine (TMB) was added to each well and the absorbance at 370 nm and 652 nm was monitored for 1 hour using an ELISA plate reader. […] The absorbance at 450 nm for each well was then measured.

[1] = test system: rat radial bone defect model; assay: Histological staining (HE, Von Kossa) of implanted scaffolds; format: in vivo; settings: 4-week implants
Excerpt: After 4 weeks and 12 weeks, animals (N=5) were euthanized by CO2 asphyxiation. The sections of the arms containing the implant (at the radius bone) were then cut way from the rest of the animal using bone cutters. The 4-week implant samples were fixed in 10% (w/v) neutral formalin solution for 4 days. The 12-week samples were fixed in 4% paraformaldehyde for 4 days. Paraformaldehyde was used as it can produce better CD31 vascularization stains relative to fixing with formalin. The samples were then placed in a solution of 70% ethanol to 30% water (v/v).
The tissue sections were deparaffinized and hydrated with distilled water. Hematoxylin was applied to the sample with enough volume to cover the tissue section followed by incubation for 5 min. The mounted tissue slide was then rinsed in 2 changes of distilled water (sections were allowed to soak for 15 sec on each exchange of water). Enough Bluing Reagent was then added to the tissue section to completely cover it followed by incubation for 10-15 sec. The slides were then rinsed again in 2 changes of distilled water allowing 15 sec of contact with the water each time. The slides were then dipped in 100% ethanol for 10 sec. The excess ethanol was blotted off. Enough Eosin Y Solution was then added to completely cover the tissue section followed by incubation for 2-3 min. The slides were then rinsed in 100% ethanol for 10 sec. […]

Row | Sequence | Relative binding strength in ELISA to BMPR2 (BMPR2) | New bone tissue / calcium deposits (Von Kossa stain) [1]
1 | SGTQDSMVGWNK (Completely synthesized in the lab - Ph.D.-12 Phage Display Peptide Library Kit (New England Biolabs)) | statistically significant binders | 
2 | VHVPLHRGAVSA (Completely synthesized in the lab - Ph.D.-12 Phage Display Peptide Library Kit (New England Biolabs)) |  | New bone tissue was observed to be best
